Laboratory results taken from patent US8652796 (Harvard, dated 2014).

Columns and labels:
SV40 T antigen = biological target: T1, SV40 T antigen (SV40, UniProt P03070 1-708); test: recruitment to inclusions, fluorescence microscopy of cells
T1 construct: also called T-Ag; viral (SV40) T antigen

[1] = biological target: T2, T Antigen-HA fusion protein (SV40, UniProt P03070 1-708); test: fluorescence microscopy of COS cells expressing T Antigen-HA with GFP-471-721
T2 construct: Construct is not described
T2 sequence (P03070 1-708, tags or fused parts left off): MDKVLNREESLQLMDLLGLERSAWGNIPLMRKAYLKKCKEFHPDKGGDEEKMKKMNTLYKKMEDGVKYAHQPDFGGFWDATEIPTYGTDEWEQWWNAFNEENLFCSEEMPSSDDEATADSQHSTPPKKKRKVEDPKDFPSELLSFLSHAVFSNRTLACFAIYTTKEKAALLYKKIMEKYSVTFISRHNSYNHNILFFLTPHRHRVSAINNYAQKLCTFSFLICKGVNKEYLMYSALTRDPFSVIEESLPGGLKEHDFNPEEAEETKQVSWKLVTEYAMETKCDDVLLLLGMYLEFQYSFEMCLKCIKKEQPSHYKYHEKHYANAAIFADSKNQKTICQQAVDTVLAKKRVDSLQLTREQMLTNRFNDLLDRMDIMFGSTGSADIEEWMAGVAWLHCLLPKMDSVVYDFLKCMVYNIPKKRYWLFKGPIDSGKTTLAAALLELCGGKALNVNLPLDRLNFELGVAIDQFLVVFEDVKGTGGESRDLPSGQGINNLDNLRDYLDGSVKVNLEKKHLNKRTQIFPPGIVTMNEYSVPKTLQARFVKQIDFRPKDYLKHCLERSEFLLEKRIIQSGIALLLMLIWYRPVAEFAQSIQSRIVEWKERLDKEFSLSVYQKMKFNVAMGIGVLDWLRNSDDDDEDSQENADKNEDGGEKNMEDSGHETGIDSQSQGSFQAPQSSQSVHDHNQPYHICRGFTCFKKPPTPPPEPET

B1: GFP/µNS(471-721) (other)
chain: SNDVTDGIKLQLDASRQCHECPVLQQKVVELEKQIIMQKSIQSDPTPVALQPLLSQLRELSSEVTRLQMELSRAQSLNAQLEADVKSAQSCSLDMYLRHHTCINGHAKEDELLDAVVAPDVRREIMEKRSEVRQGWCERISKEAAAKCQTVIDDLTLMNGKQAQEITELRDSAEKYEKQIAELVSTITQNQITYQQELQALVAKNVELDALNQRQAKSLRITPSLLSATPIDSVDDVADLIDFSVPTDEL
notes: Expressed from pEGFP-C1-M3(471-721); GFP at the N terminus of µNS residues 471-721; also called GFP-471-721 fusion protein; EGFP/µNS(471-721); not shown: enhanced Aequorea victoria green fluorescent protein (EGFP) as encoded by the pEGFP-C1 vector (BD Biosciences); the enha
binding result (SV40 T antigen): no binding | binding result [1]: no binding
